Results on one molecule are retold here after paper PMC7397871.

The data set addresses T1, ZC3H12B PIN + C3H1 crystallization construct (Homo sapiens, UniProt Q5HYM0 179-380).
T1 sequence: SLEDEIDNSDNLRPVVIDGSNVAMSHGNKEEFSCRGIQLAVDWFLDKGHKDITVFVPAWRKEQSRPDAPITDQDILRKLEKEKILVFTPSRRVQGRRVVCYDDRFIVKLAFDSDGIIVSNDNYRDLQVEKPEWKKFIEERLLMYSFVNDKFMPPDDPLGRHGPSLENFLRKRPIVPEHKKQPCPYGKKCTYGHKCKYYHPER
Nature of the data set: X-ray crystallography.

As for AAUGCGACAGUCGGUAGCAUC (ssRNA, phosphorothioate between nt 1 and 2 (5' end)) [21-nt HTR-SELEX-enriched RNA], the binding result is “binds”.
